Test results published in IntAct's records for PubMed 24469399.

B1: NF-kappa-B essential modulator (Mus musculus), O88522 (parent)
chain: MNKHPWKNQLSEMVQPSGGPAEDQDMLGEESSLGKPAMLHLPSEQGTPETLQRCLEENQELRDAIRQSNQMLRERCEELLHFQVSQREEKEFLMCKFQEARKLVERLSLEKLDLRSQREQALKELEQLKKCQQQMAEDKASVKAQVTSLLGELQESQSRLEAATKDRQALEGRIRAVSEQVRQLESEREVLQQQHSVQVDQLRMQNQSVEAALRMERQAASEEKRKLAQLQAAYHQLFQDYDSHIKSSKGMQLEDLRQQLQQAEEALVAKQELIDKLKEEAEQHKIVMETVPVLKAQADIYKADFQAERHAREKLVEKKEYLQEQLEQLQREFNKLKVGCHESARIEDMRKRHVETPQPPLLPAPAHHSFHLALSNQRRSPPEEPPDFCCPKCQYQAPDMDTLQIHVMECIE

Variants of: B1
Conditions: with rnf31_mouse Rnf31, Q924T7
Chain of rnf31_mouse Rnf31, Q924T7 (Q924T7 whole entry): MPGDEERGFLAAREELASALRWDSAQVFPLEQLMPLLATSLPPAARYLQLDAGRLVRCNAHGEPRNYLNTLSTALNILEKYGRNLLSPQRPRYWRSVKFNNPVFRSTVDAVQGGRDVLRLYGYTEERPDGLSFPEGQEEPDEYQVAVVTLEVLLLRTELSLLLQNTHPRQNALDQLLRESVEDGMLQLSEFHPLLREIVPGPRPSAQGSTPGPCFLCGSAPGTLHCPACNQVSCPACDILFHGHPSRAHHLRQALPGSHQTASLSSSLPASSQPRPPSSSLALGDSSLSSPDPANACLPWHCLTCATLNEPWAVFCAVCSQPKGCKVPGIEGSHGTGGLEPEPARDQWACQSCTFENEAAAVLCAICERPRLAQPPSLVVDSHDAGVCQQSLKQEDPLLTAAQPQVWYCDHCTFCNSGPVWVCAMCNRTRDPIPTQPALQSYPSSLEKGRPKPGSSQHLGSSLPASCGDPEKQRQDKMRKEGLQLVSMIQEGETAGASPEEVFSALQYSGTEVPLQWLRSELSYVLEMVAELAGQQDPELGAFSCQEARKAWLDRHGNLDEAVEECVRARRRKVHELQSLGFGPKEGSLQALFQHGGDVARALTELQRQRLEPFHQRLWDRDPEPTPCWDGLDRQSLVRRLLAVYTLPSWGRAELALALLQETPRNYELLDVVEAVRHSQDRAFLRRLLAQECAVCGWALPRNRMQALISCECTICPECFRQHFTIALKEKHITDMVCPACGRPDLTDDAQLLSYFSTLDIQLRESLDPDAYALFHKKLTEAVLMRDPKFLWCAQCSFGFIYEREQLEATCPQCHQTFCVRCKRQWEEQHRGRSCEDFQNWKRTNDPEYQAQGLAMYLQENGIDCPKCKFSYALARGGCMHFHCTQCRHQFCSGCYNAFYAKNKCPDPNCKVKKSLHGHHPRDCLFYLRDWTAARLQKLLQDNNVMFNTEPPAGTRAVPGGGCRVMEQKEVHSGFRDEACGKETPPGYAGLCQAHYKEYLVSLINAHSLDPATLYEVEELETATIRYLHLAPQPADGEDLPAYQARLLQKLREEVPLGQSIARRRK

effect of a mutation on the interaction	Variant
disrupting interaction	MNKHPWKNQLSEMVQPSGGPAEDQDMLGEESSLGKPAMLHLPSEQGTPETLQRCLEENQELRDAIRQSNQMLRERCEELLHFQVSQREEKEFLMCKFQEARKLVERLSLEKLDLRSQREQALKELEQLKKCQQQMAEDKASVKAQVTSLLGELQESQSRLEAATKDRQALEGRIRAVSEQVRQLESEREVLQQQHSVQVDQLRMQNQSVEAALRMERQAASEEKRKLAQLQAAYHQLFQDYDSHIKSSKGMQLEDLRQQLQQAEEALVAKAELIAKLKEEAEQHKIVMETVPVLKAQADIYKADFQAERHAREKLVEKKEYLQEQLEQLQREFNKLKVGCHESARIEDMRKRHVETPQPPLLPAPAHHSFHLALSNQRRSPPEEPPDFCCPKCQYQAPDMDTLQIHVMECIE [Q271A;D275A]

Variants of: B1
Conditions: with rnf31_mouse Rnf31, Q924T7
Remark: another data set of the same source

effect of a mutation on the interaction	Variant
disrupting interaction	MNKHPWKNQLSEMVQPSGGPAEDQDMLGEESSLGKPAMLHLPSEQGTPETLQRCLEENQELRDAIRQSNQMLRERCEELLHFQVSQREEKEFLMCKFQEARKLVERLSLEKLDLRSQREQALKELEQLKKCQQQMAEDKASVKAQVTSLLGELQESQSRLEAATKDRQALEGRIRAVSEQVRQLESEREVLQQQHSVQVDQLRMQNQSVEAALRMERQAASEEKRKLAQLQAAYHQLFQDYDSHIKSSKGMQLEDLRQQLQQAEEALVAKAELIDKLKEEAEQHKIVMETVPVLKAQADIYKADFQAERHAREKLVEKKEYLQEQLEQLQREFNKLKVGCHESARIEDMRKRHVETPQPPLLPAPAHHSFHLALSNQRRSPPEEPPDFCCPKCQYQAPDMDTLQIHVMECIE [Q271A]

Variants of: B1
Conditions: with rnf31_mouse Rnf31, Q924T7
Remark: another data set of the same source

effect of a mutation on the interaction	Variant
disrupting interaction	MNKHPWKNQLSEMVQPSGGPAEDQDMLGEESSLGKPAMLHLPSEQGTPETLQRCLEENQELRDAIRQSNQMLRERCEELLHFQVSQREEKEFLMCKFQEARKLVERLSLEKLDLRSQREQALKELEQLKKCQQQMAEDKASVKAQVTSLLGELQESQSRLEAATKDRQALEGRIRAVSEQVRQLESEREVLQQQHSVQVDQLRMQNQSVEAALRMERQAASEEKRKLAQLQAAYHQLFQDYDSHIKSSKGMQLEDLRQQLQQAEEALVAKQELIAKLKEEAEQHKIVMETVPVLKAQADIYKADFQAERHAREKLVEKKEYLQEQLEQLQREFNKLKVGCHESARIEDMRKRHVETPQPPLLPAPAHHSFHLALSNQRRSPPEEPPDFCCPKCQYQAPDMDTLQIHVMECIE [D275A]
